± gives the uncertainty stated by the source.
B1: Transcription elongation regulator 1-like protein, residues 448 to 504; numbered along this chain, Q5VWI1 (parent)
chain: LPLEERVTHFRDMLLERGVSAFSTWEKELHKIVFDPRYLLLNSEERKQIFEQFVKTR

Variants of: B1
Assay: abundance fitness (aPCA) (normalised: wild type 0, dead -1); higher = more abundant; growth selection in yeast, the domain comes from the species named
Conditions: Homo sapiens

Row | Variant | abundance fitness
1 | LPLEERVTHFRDMLLERGVSFFSTWEKELHKIVFDPRYLLLNSEERKQIFEQFVKTR [A21F] | -0.593 ± 0.23
2 | LPLEERVTHFRDMLLERGVSCFSTWEKELHKIVFDPRYLLLNSEERKQIFEQFVKTR [A21C] | -0.202 ± 0.34
3 | LPLEERVTHFRDMLLERGVSEFSTWEKELHKIVFDPRYLLLNSEERKQIFEQFVKTR [A21E] | -0.165 ± 0.17
4 | LPLEERVTHFRDMLLERVVSAFSTWEKELHKIVFDPRYLLLNSEERKQIFEQFVKTR [G18V] | -0.612 ± 0.26
5 | LPLEERVTHFRDMLLERWVSAFSTWEKELHKIVFDPRYLLLNSEERKQIFEQFVKTR [G18W] | -0.746 ± 0.25
6 | LPLEERVTHFRDMLLERKVSAFSTWEKELHKIVFDPRYLLLNSEERKQIFEQFVKTR [G18K] | 0.719 ± 0.15
7 | LPLEERVTHFRDMLLERCVSAFSTWEKELHKIVFDPRYLLLNSEERKQIFEQFVKTR [G18C] | -0.714 ± 0.44
8 | LPLEERVTHFRDMLLERMVSAFSTWEKELHKIVFDPRYLLLNSEERKQIFEQFVKTR [G18M] | -0.96 ± 0.36
9 | LPLEERVTHFRDMLLERRVSAFSTWEKELHKIVFDPRYLLLNSEERKQIFEQFVKTR [G18R] | -0.316 ± 0.11
10 | LPLEERVTHFRDMLLERQVSAFSTWEKELHKIVFDPRYLLLNSEERKQIFEQFVKTR [G18Q] | -0.454 ± 0.31
11 | LPLEERVTHFRDMLLERSVSAFSTWEKELHKIVFDPRYLLLNSEERKQIFEQFVKTR [G18S] | -0.33 ± 0.14
12 | LPLEERVTHFRDMLLERAVSAFSTWEKELHKIVFDPRYLLLNSEERKQIFEQFVKTR [G18A] | -0.588 ± 0.12
13 | LPLEERVTHFRDMLLEREVSAFSTWEKELHKIVFDPRYLLLNSEERKQIFEQFVKTR [G18E] | 0.071 ± 0.12
14 | LPLEERVTHFRDMLLERLVSAFSTWEKELHKIVFDPRYLLLNSEERKQIFEQFVKTR [G18L] | -0.545 ± 0.15
15 | LPLEERVTHFRDMLLERTVSAFSTWEKELHKIVFDPRYLLLNSEERKQIFEQFVKTR [G18T] | 0.098 ± 0.24
16 | LPLEERVTHFRDMLLERGASAFSTWEKELHKIVFDPRYLLLNSEERKQIFEQFVKTR [V19A] | -0.709 ± 0.22
17 | LPLEERVTHFRDMLLERGISAFSTWEKELHKIVFDPRYLLLNSEERKQIFEQFVKTR [V19I] | -0.528 ± 0.15
18 | LPLEERVTHFRDMLLERGQSAFSTWEKELHKIVFDPRYLLLNSEERKQIFEQFVKTR [V19Q] | -0.625 ± 0.4
19 | LPLEERVTHFRDMLLERGKSAFSTWEKELHKIVFDPRYLLLNSEERKQIFEQFVKTR [V19K] | -0.376 ± 0.29
20 | LPLEERVTHFRDMLLERGGSAFSTWEKELHKIVFDPRYLLLNSEERKQIFEQFVKTR [V19G] | -0.7 ± 0.13
21 | LPLEERVTHFRDMLLERGSSAFSTWEKELHKIVFDPRYLLLNSEERKQIFEQFVKTR [V19S] | -0.805 ± 0.25
22 | LPLEERVTHFRDMLLERGLSAFSTWEKELHKIVFDPRYLLLNSEERKQIFEQFVKTR [V19L] | -0.998 ± 0.32
23 | LPLEERVTHFRDMLLERGRSAFSTWEKELHKIVFDPRYLLLNSEERKQIFEQFVKTR [V19R] | -0.916 ± 0.2
24 | LPLEERVTHFRDMLLERGESAFSTWEKELHKIVFDPRYLLLNSEERKQIFEQFVKTR [V19E] | -0.893 ± 0.14

Row | Variant | abundance fitness
25 | LPLEERVTHFRDMLLERGCSAFSTWEKELHKIVFDPRYLLLNSEERKQIFEQFVKTR [V19C] | -0.611 ± 0.44
26 | LPLEERVTHFRDMLLERGTSAFSTWEKELHKIVFDPRYLLLNSEERKQIFEQFVKTR [V19T] | -0.674 ± 0.25
27 | LPLEERVTHFRDMLLERGWSAFSTWEKELHKIVFDPRYLLLNSEERKQIFEQFVKTR [V19W] | -0.767 ± 0.27
28 | LPLEERVTHFRDMLLEPGVSAFSTWEKELHKIVFDPRYLLLNSEERKQIFEQFVKTR [R17P] | -0.249 ± 0.37
29 | LPLEERVTHFRDMLLEQGVSAFSTWEKELHKIVFDPRYLLLNSEERKQIFEQFVKTR [R17Q] | -0.287 ± 0.42
30 | LPLEERVTHFRDMLLELGVSAFSTWEKELHKIVFDPRYLLLNSEERKQIFEQFVKTR [R17L] | -0.312 ± 0.23
31 | LPLEERVTHFRDMLLEMGVSAFSTWEKELHKIVFDPRYLLLNSEERKQIFEQFVKTR [R17M] | -0.237 ± 0.27
32 | LPLEERVTHFRDMLLENGVSAFSTWEKELHKIVFDPRYLLLNSEERKQIFEQFVKTR [R17N] | -0.218 ± 0.32
33 | LPLEERVTHFRDMLLEKGVSAFSTWEKELHKIVFDPRYLLLNSEERKQIFEQFVKTR [R17K] | 0.64 ± 0.17
34 | LPLEERVTHFRDMLLEVGVSAFSTWEKELHKIVFDPRYLLLNSEERKQIFEQFVKTR [R17V] | -0.434 ± 0.32
35 | LPLEERVTHFRDMLLERGVRAFSTWEKELHKIVFDPRYLLLNSEERKQIFEQFVKTR [S20R] | -1 ± 0.38
36 | LPLEERVTHFRDMLLERGVEAFSTWEKELHKIVFDPRYLLLNSEERKQIFEQFVKTR [S20E] | -0.563 ± 0.23
37 | LPLEERVTHFRDMLLERGVCAFSTWEKELHKIVFDPRYLLLNSEERKQIFEQFVKTR [S20C] | -0.169 ± 0.25
38 | LPLEERVTHFRDMLLERGVWAFSTWEKELHKIVFDPRYLLLNSEERKQIFEQFVKTR [S20W] | -0.371 ± 0.18
39 | LPLEERVTHFRDMLLERGVAAFSTWEKELHKIVFDPRYLLLNSEERKQIFEQFVKTR [S20A] | -0.369 ± 0.16
40 | LPLEERVTHFRDMLLERGVTAFSTWEKELHKIVFDPRYLLLNSEERKQIFEQFVKTR [S20T] | -0.38 ± 0.33
41 | LPLEERVTHFRDMLLERGVFAFSTWEKELHKIVFDPRYLLLNSEERKQIFEQFVKTR [S20F] | -0.523 ± 0.14
42 | LPLEERVTHFRDMLLERGVGAFSTWEKELHKIVFDPRYLLLNSEERKQIFEQFVKTR [S20G] | -0.283 ± 0.1
43 | LPLEERVTHFRDMLLERGVPAFSTWEKELHKIVFDPRYLLLNSEERKQIFEQFVKTR [S20P] | -0.535 ± 0.45
44 | LPLEERVTHFRDMLLERGVNAFSTWEKELHKIVFDPRYLLLNSEERKQIFEQFVKTR [S20N] | 0.589 ± 0.17
45 | LPLEERVTHFRDMLLERGVVAFSTWEKELHKIVFDPRYLLLNSEERKQIFEQFVKTR [S20V] | -0.691 ± 0.25
46 | LPLEERVTHFRDMLLERGVDAFSTWEKELHKIVFDPRYLLLNSEERKQIFEQFVKTR [S20D] | -0.185 ± 0.22
47 | LPLEERVTHFRDMLLERGVLAFSTWEKELHKIVFDPRYLLLNSEERKQIFEQFVKTR [S20L] | -0.594 ± 0.22
